In US20130177660A1 (NATIONAL UNIVERSITY CORPORATION NAGOYA UNIVERSITY, published 2013):

Target: T1, Flag-RFP (Flag-tagged RET finger protein) (Homo sapiens, UniProt P14373 1-513)
T1 construct: Expressed by transient transfection in HEK293 cells and tested in cell lysates by co-immunoprecipitation; also called TRIM27; pFlag-RFP; not shown: Flag tag from the pFlag vector
T1 sequence: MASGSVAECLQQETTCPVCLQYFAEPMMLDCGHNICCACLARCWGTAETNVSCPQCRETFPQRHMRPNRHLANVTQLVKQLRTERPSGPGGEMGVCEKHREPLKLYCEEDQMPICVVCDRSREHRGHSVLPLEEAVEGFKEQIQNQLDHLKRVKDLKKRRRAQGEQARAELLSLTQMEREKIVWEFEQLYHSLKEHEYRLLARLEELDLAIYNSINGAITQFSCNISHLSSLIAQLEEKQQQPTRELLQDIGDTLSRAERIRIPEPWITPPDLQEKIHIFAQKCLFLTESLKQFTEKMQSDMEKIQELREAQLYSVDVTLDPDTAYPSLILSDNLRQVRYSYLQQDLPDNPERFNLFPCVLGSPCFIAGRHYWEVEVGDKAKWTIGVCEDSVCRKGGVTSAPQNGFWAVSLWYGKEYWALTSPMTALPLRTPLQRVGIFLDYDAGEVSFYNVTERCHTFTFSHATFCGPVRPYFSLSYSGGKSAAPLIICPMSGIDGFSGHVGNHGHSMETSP
Assay: co-IP from HEK293 cells co-transfected with GFP-RFP and Flag-RFP; anti-Flag IP, anti-GFP blot
Description: FIG. 7 RFP Oligomerization (a) RFP forms homo-oligomer, HEK293 cells were co-transfected with GFP-RFP and Flag-RFP, and immunoprecipitated with anti-Flag antibody followed by immunoblotting with anti-Flag and anti-GFP antibodies. Anti-HA antibody was used as mock. WCL: whole cell lysates. (b) Ring-B-box and Coiled-coil domains, but not Rfp domain, of RFP were required for its oligomerization. HEK293 cells were co-transfected with GFP-RFP and Flag tagged RFP deletion constructs, and immunoprecipitated with anti-Flag antibody. The pFlag vector was used as control. Arrow heads indicate Flag-tagged RFP constructs.

B1: GFP-RFP (other)
chain: T1 sequence
notes: RFP cDNA inserted into the pEGFP-C1 vector; also called RFP in pEGFP-C1; not shown: GFP (EGFP of the pEGFP-C1 vector) and linker
binding result: binds
